Source: PMC7484505
One block for each substance: values may come before it.

Assays:
hNav1.7/A1632E (human) = hNav1.7/A1632E (human) (UniProt Q15858)
hNav1.7^GFP (human) = hNav1.7^GFP (human) (UniProt Q15858)
[1] = biological target: hNav1.7/A1632E^His-StrepII (human) (UniProt Q15858)

maximal relative persistent current of hNav1.7/A1632E in HEK293T cells (patch clamp), without against with co-expressed difopein (hNav1.7/A1632E (human)): 13.2%
Substance: hNav1.7/A1632E (from UniProt Q15858-3 1-1977) (natural protein)

peak current density (whole-cell patch clamp) of the Nav1.7 stable HEK cell line (untagged hNav1.7/WT) on co-expression of hNav1.7/R896Q, against the stable line alone (hNav1.7^GFP (human)): 31%
Substance: hNav1.7/R896Q (from UniProt Q15858-3 1-1977) (natural protein)

maximal relative persistent current of hNav1.7/A1632E in X. laevis oocytes (TEVC), without against with co-injected difopein cRNA [1]: -13.6%
Substance: hNav1.7/A1632E^His-StrepII (from UniProt Q15858-3 1-1977) (natural protein)
